Source: patent publication US20200002425A1

What was measured:
[1] = molecular target: human PD-L1 expressed on cells (H441 lung tumor cells; MDA-MB-231 cells; artificial antigen presenting cells) (human) (UniProt Q9NZQ7); assay: cell-based or functional assay
[2] = molecular target: TGFβ1 (human) (UniProt P01137); assay: SPR, binder immobilized by Fc capture, TGFβ1 as analyte, OneStep kinetic analysis on Pioneer FE (Fortebio)
[3] = molecular target: TGFβ2 (UniProt P61812); assay: SPR, binder immobilized by Fc capture, TGFβ2 as analyte, OneStep kinetic analysis on Pioneer FE (Fortebio)
TGFβ2, sequence (P61812 303-414 limits assumed): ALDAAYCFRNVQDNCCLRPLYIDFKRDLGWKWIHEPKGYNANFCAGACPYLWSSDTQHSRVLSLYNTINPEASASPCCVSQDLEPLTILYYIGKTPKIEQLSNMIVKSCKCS

[4] = molecular target: PD-L1 (soluble analyte in the SPR assay) (UniProt Q9NZQ7); assay: SPR, binder immobilized by Fc capture, PD-L1 as analyte, OneStep kinetic analysis on Pioneer FE (Fortebio)
PD-L1 (soluble analyte in the SPR assay), sequence (Q9NZQ7 19-238 limits assumed): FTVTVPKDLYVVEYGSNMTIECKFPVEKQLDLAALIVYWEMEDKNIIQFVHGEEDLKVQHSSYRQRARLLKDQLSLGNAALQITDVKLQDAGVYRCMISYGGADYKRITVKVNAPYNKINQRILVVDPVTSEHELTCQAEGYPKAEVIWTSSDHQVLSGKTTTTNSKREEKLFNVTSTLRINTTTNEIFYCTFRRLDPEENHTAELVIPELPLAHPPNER

[5] = molecular target: human PD-L1 expressed on cells (H441 lung tumor cells; MDA-MB-231 cells; artificial antigen presenting cells) (human) (UniProt Q9NZQ7); assay: flow cytometry on PD-L1+ H441 cells, APC anti-human IgG Fc detection; the table has no unit, pM is from the graph's axis Concentration(pM)

human PD-L1 expressed on cells (H441 lung tumor cells; MDA-MB-231 cells; artificial antigen presenting cells) (human), sequence (Q9NZQ7 19-290): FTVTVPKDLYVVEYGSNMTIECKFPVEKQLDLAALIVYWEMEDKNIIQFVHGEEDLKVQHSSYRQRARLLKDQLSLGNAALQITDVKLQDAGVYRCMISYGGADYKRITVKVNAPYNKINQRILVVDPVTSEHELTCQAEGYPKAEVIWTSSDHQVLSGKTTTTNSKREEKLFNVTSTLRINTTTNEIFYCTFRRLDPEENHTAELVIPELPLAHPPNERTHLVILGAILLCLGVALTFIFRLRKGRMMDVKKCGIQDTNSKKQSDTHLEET
TGFβ1 (human), sequence (P01137 279-390 limits assumed): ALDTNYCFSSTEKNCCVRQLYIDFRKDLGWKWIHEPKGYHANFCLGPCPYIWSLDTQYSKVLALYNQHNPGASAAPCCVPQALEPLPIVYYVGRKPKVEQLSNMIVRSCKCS

Kd [2]: 0.24 nM
Kd [3]: 0.52 nM
Kd [4]: 7.6 nM
EC50 [5]: 0.182 nM
Substance: αPDL1/TXM/TGFβRII (N-810A); IL-15N72D:αPDL1/IL-15RαSu/Fc/TGFβRII fusion protein complex (from UniProt P40933 49-162) (Fc fusion)
maximal killing, ADCC against PD-L1-positive MDA-MB-231 breast tumor cells [1]: 30%
